Assays:
CA724 胃癌抗原 (B72.3抗原) [1] = test: direct ELISA, antigen coated at 100 ng/mL, pNPP substrate read through the fused AP; still in linear range, no plateau
CA724 胃癌抗原 (B72.3抗原) [2] = test: ELISA, antigen coated at 100 ng/mL, HRP goat anti-mouse Fab secondary, OD450
CA724 胃癌抗原 (B72.3抗原) [3] = test: direct ELISA, antigen coated at 100 ng/mL, pNPP substrate read through the attached ALP; plateau value

Fab抗体与碱性磷酸酶融合蛋白(Fab)2-AP (CA724-B72.3 Fab fused to calf intestinal alkaline phosphatase, Fab:AP monomer 1:1), sequence (light, form in doubt): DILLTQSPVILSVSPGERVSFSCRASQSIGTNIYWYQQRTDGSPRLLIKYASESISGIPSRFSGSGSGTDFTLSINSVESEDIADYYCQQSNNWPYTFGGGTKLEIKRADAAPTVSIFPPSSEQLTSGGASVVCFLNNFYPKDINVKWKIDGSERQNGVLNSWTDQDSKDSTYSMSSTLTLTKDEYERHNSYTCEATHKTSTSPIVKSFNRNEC

Row | 吸光值 (405nm) (CA724 胃癌抗原 (B72.3抗原) [1]) | fold decrease of high-end antibody activity (against the original antibody / fusion protein) (CA724 胃癌抗原 (B72.3抗原) [2]) | 最高吸光值 (405nm) (CA724 胃癌抗原 (B72.3抗原) [3]) | Substance
1 | 1.2 OD405 |  |  | Fab抗体与碱性磷酸酶融合蛋白(Fab)2-AP (CA724-B72.3 Fab fused to calf intestinal alkaline phosphatase, Fab:AP monomer 1:1)
2 |  | 1 倍 | 0.8 OD405 | 对照抗体化学标记ALP蛋白 (CA724-B72.3 antibody chemically labelled with alkaline phosphatase)

From patent CN113621079A
